# From patent publication US20110014616
# Columns and labels:
# Test in all cases: cell_activity
# [1] = system: WAS-specific ZFN pair (synthetic construct); conditions: K562, Cel-1 assay, day 3
# [2] = system: Factor IX-specific ZFN pair (synthetic construct); conditions: K562, unsorted, Cel-1 assay; 40.79% after SSA sorting
# [3] = system: CCR5-specific ZFN pair (synthetic construct); conditions: K562, unsorted, Cel-1 assay; 37.5% after SSA sorting
substance,measurement,setting,value
WAS ZFN target site,activity,[1],17.9 % NHEJ
Factor IX ZFN target site,activity,[2],17.9 % NHEJ
CCR5 ZFN target site,activity,[3],25 % NHEJ
